What was measured:
[1] = target: T1, MBD2-MBD (methyl-binding domain of MBD2) (Homo sapiens, UniProt Q9UBB5 Q9UBB5:145-213); assay: FP; 10 nM hairpin; 50 mM NaCl, 1 mM MgCl2, 10 mM Tris pH 7.4, room temp; text gives 2 or 3 sites as 156 and 222 nM respectively but cites FIGS. 2A (three pairs) and; conditions: tags: C-terminal 6xHis (pFBC6H baculovirus vector, Sf9), label: 5'-6FAM
Method: (§1) 10 nM of annealed, fluorescently-labeled hairpin oligonucleotides with the sequence 5′-6FAM-[…]-3′ (SEQ ID NO:4) with no methylated CpGs (unmethylated hairpin), 2 methylated CpGs at the 2nd and 5th CpGs from the 5′ end (1 symmetrically methylated CpG hairpin), 3 methylated CpGs toward the 3′ end (3 asymmetrically methylated CpG hairpin), 4 methylated CpGs at the 1st, 2nd, 5th, and 6th CpGs from the 5′ end (2 symmetrically methylated CpG hairpin), or 6 methylated CpGs (3 symmetrically methylated CpG hairpin) were incubated with various concentrations of recombinant MBD2-MBD in a 50 μL reaction volume containing 4% glycerol, 1 mM MgCl₂, 0.5 mM EDTA, 0.5 mM DTT, 50 mM NaCl, 10 mM Tris-HCl (pH 7.4), 0.2% Tween-20 for 1 hour at room temperature with gentle shaking. Fluorescence polarization measurements were taken in triplicate using a Beckman Coulter DTX 880 Multimode Detector as described previously (Lee et al., (2005), supra). Briefly, fluorescence anisotropies (r) were calculated as
(§2) 6His-tagged methyl-binding domain of human MBD2 (MBD2-MBD) was expressed in Sf9 insect cells using a baculoviral expression system and purified using Ni-NTA Superflow beads (Qiagen, Valencia, Calif.). The affinities of MBD2-MBD for fluorescently labeled hairpin oligonucleotides containing various configurations of CpG methylation were then determined by fluorescence polarization (FIG. 2). […]

[2] = target: T1, MBD2-MBD (methyl-binding domain of MBD2); assay: FP; 10 nM hairpin; 50 mM NaCl, 1 mM MgCl2, 10 mM Tris pH 7.4, room temp; conditions: tags: C-terminal 6xHis (pFBC6H baculovirus vector, Sf9), label: 5'-6FAM
Method: as §1, §2

T1 sequence (Q9UBB5 145-213, one chain of several): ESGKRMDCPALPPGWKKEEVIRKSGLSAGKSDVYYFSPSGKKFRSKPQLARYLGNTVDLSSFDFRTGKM

Binder	EC50 [1] [µM]	EC50 [2] [µM]
ATCGTCGTACGTTTTCGTACGACGAT (structured_DNA, 5mC at 1st, 2nd, 5th and 6th CpGs from 5' end (C3, C6, C20, C23)) [2 symmetrically methylated CpG hairpin]	0.156	
ATCGTCGTACGTTTTCGTACGACGAT (structured_DNA, 5mC at 2nd and 5th CpGs from 5' end (C6, C20)) [1 symmetrically methylated CpG hairpin]		0.519

Reference: patent US20090197263, “Compare-MS: Method Rapid, Sensitive and Accurate Detection of DNA Methylation” (published 2009)
